Among the data in the FLAb antibody collection (doi:10.7554/elife.23156) are Kd and yeast surface expression values, retold here.

Where only a bound is given, the exact number is not on record here.

B1: scFv; the commonest letter at each place (parent)
chain 1: EVKLDETGGGLVQPGRPMKLSCVASGFTFSDYWMNWVRQSPEKGLEWVAQIRNKPYNYETYYSDSVKGRFTISRDDSKSSVYLQMNNLRVEDMGIYYCTGSYYGMDYWGQGTSVTVS
chain 2: DVVMTQTPLSLPVSLGDQASISCRSSQSLVHSNGNTYLRWYLQKPGQSPKVLIYKVSNRFSGVPDRFSGSGSGTDFTLKISRVEAEDLGVYFCSQSTHVPWTFGGGTKLEIK

Variants of B1 are the subject of the data set “fluorescein”. Description: Kd (Tite-Seq). The following applies: with fluorescein; format: scFv 4-4-20, heavy + light.
Data set [1] covers variants of B1. Description: yeast surface expression (ratio to wild type); higher = more expressed. The following applies: format: scFv 4-4-20, heavy + light.

Turning to chain 1 Y107D W108N, the Kd with fluorescein is ≥ 10 µM. Besides, the yeast surface expression in data set [1] came out at 0.477.

In the case of chain 1 Y103P W108Y, the Kd with fluorescein was ≥ 10 µM. The yeast surface expression in data set [1] came out at 0.364.

As to chain 1 T28I Y32S, the Kd with fluorescein is 2.23 µM. In data set [1], the yeast surface expression came out at 0.842.

Take chain 1 S101I G104T: the Kd with fluorescein is ≥ 10 µM. Also, the yeast surface expression in data set [1] came to 0.4.

On to chain 1 G104N Y107K, for which, in the data set with fluorescein, the Kd is ≥ 10 µM. Further, in data set [1], the yeast surface expression stood at 0.64.

As to chain 1 N35I V37M, the equilibrium dissociation constant (Kd) with fluorescein was ≥ 10 µM. Further, in data set [1], the yeast surface expression was determined as 0.626.

Take chain 1 T28A D31C N35A: in the data set with fluorescein, the Kd was ≥ 10 µM. Also, the yeast surface expression in data set [1] was 0.411.

With chain 1 F29W D31F, in the data set with fluorescein, the Kd was ≥ 10 µM. In data set [1], the yeast surface expression came to 0.475.

Regarding chain 1 D31P W36I, in the data set with fluorescein, the Kd was ≥ 10 µM. In addition, the yeast surface expression in data set [1] is 0.513.

Take chain 1 Y102I Y103E G109K: the Kd with fluorescein was ≥ 10 µM. Further, the yeast surface expression in data set [1] came out at 0.364.

For the variant chain 1 Y103V Y107M, the Kd in the data set with fluorescein is ≥ 10 µM. In addition, the yeast surface expression in data set [1] worked out at 0.53.

For chain 1 W33C, the Kd in the data set with fluorescein is ≥ 10 µM. Further, the yeast surface expression in data set [1] turned out to be 0.827.

As to chain 1 S30I V37C, the Kd with fluorescein was found to be 0.00135 µM. Also, the yeast surface expression in data set [1] was 0.464.

Regarding chain 1 Y102A D106S, the Kd in the data set with fluorescein is 0.0038 µM. Besides, in data set [1], the yeast surface expression was determined as 1.06.

With chain 1 M105K G109W, in the data set with fluorescein, the Kd was ≥ 10 µM. Further, in data set [1], the yeast surface expression came out at 0.118.

Consider chain 1 S101D Y102P, for which the Kd with fluorescein is ≥ 10 µM. The yeast surface expression in data set [1] was 0.719.

chain 1 G104C Y107P W108I: the Kd in the data set with fluorescein is ≥ 10 µM. Moreover, the yeast surface expression in data set [1] was 0.214.

For chain 1 F29Q M34W, the Kd with fluorescein is ≥ 10 µM. Also, in data set [1], the yeast surface expression is 1.56.

With chain 1 Y32H V37Q, in the data set with fluorescein, the Kd was ≥ 10 µM. In data set [1], the yeast surface expression came out at 0.372.

Turning to chain 1 S30H D31K, the Kd with fluorescein is 0.00468 µM. Also, the yeast surface expression in data set [1] is 0.668.

For chain 1 W108N, the Kd with fluorescein stood at 0.031 µM. The yeast surface expression in data set [1] came to 0.468.

On to chain 1 W108K, for which the Kd in the data set with fluorescein worked out at 0.0221 µM. For the same variant, the yeast surface expression in data set [1] turned out to be 0.504.

chain 1 Y103L G104Y: in the data set with fluorescein, the Kd is ≥ 10 µM. In addition, the yeast surface expression in data set [1] came to 0.604.

With chain 1 S101L M105D D106L, the Kd in the data set with fluorescein was ≥ 10 µM. The yeast surface expression in data set [1] came to 0.276.

On to chain 1 S101C G104C, for which the dissociation constant Kd with fluorescein is ≥ 10 µM. The yeast surface expression in data set [1] was found to be 0.33.

Take chain 1 G104Y W108L: the Kd in the data set with fluorescein was ≥ 10 µM. Further, the yeast surface expression in data set [1] was 0.212.

In the case of chain 1 S30T V37C, the Kd with fluorescein was 0.000454 µM. Further, the yeast surface expression in data set [1] was found to be 0.826.

As to chain 1 T28V M34Y, the Kd in the data set with fluorescein worked out at 0.00966 µM. Moreover, in data set [1], the yeast surface expression was 0.889.

chain 1 T28W D31F: the equilibrium dissociation constant (Kd) in the data set with fluorescein came to 0.116 µM. For the same variant, the yeast surface expression in data set [1] is 0.553.

As for chain 1 M34S N35H, in the data set with fluorescein, the Kd was ≥ 10 µM. Besides, the yeast surface expression in data set [1] was 0.536.

As for chain 1 D31R Y32I, in the data set with fluorescein, the dissociation constant (Kd) was ≥ 10 µM. In addition, in data set [1], the yeast surface expression amounted to 0.818.

Take chain 1 F29P W33E: the dissociation constant (Kd) with fluorescein is ≥ 10 µM. Besides, the yeast surface expression in data set [1] was 0.722.

For the variant chain 1 Y102N M105C, the Kd with fluorescein is ≥ 10 µM. Moreover, in data set [1], the yeast surface expression is 1.22.

As for chain 1 Y102V M105N, the Kd with fluorescein worked out at 0.522 µM. Further, the yeast surface expression in data set [1] came out at 1.01.

For chain 1 Y103R Y107F, in the data set with fluorescein, the Kd is 0.00546 µM. Further, the yeast surface expression in data set [1] came out at 0.936.

On to chain 1 S30T M34I, for which, in the data set with fluorescein, the dissociation constant Kd came to 0.00493 µM. For the same variant, in data set [1], the yeast surface expression was 0.678.

As to chain 1 S101Q M105Y, the Kd with fluorescein is ≥ 10 µM. In addition, the yeast surface expression in data set [1] is 0.795.

Consider chain 1 M34K N35S, for which the Kd with fluorescein is ≥ 10 µM. Further, the yeast surface expression in data set [1] stood at 1.46.

In the case of chain 1 G100P G104H, the Kd with fluorescein was ≥ 10 µM. In addition, in data set [1], the yeast surface expression worked out at 0.68.

As to chain 1 M34N W36E, the Kd with fluorescein is ≥ 10 µM. Moreover, in data set [1], the yeast surface expression came to 0.587.

As for chain 1 G104R M105R, the Kd in the data set with fluorescein was ≥ 10 µM. Further, the yeast surface expression in data set [1] came to 0.672.

Turning to chain 1 M34P V37L, in the data set with fluorescein, the Kd is ≥ 10 µM. Also, in data set [1], the yeast surface expression is 1.01.

Regarding chain 1 N35W, in the data set with fluorescein, the Kd was ≥ 10 µM. In addition, the yeast surface expression in data set [1] came out at 0.6.

chain 1 Y102S G109L: the equilibrium dissociation constant (Kd) with fluorescein is ≥ 10 µM. In addition, the yeast surface expression in data set [1] worked out at 0.228.

On to chain 1 W33D M34Q, for which the Kd with fluorescein is ≥ 10 µM. Also, the yeast surface expression in data set [1] was determined as 0.754.

Regarding chain 1 M105A G109A, the Kd with fluorescein is ≥ 10 µM. Further, the yeast surface expression in data set [1] came to 0.685.

As for chain 1 Y103R, the Kd in the data set with fluorescein is 0.00444 µM. The yeast surface expression in data set [1] was 0.971.

Take chain 1 F29T M34S: the Kd with fluorescein was ≥ 10 µM. Also, in data set [1], the yeast surface expression worked out at 0.649.

Turning to chain 1 Y103M D106G, the Kd in the data set with fluorescein was ≥ 10 µM. Moreover, in data set [1], the yeast surface expression was 0.479.

In the case of chain 1 T28K V37L, the Kd in the data set with fluorescein was found to be 0.143 µM. The yeast surface expression in data set [1] was 1.01.

chain 1 W33E N35G: the Kd with fluorescein is ≥ 10 µM. Moreover, the yeast surface expression in data set [1] was determined as 1.05.

In the case of chain 1 N35S W36Y, the dissociation constant (Kd) in the data set with fluorescein is ≥ 10 µM. Besides, the yeast surface expression in data set [1] was found to be 0.787.

As for chain 1 M34Q V37T, the Kd in the data set with fluorescein was ≥ 10 µM. The yeast surface expression in data set [1] amounted to 0.629.

For chain 1 G100M G104C, in the data set with fluorescein, the Kd was ≥ 10 µM. For the same variant, the yeast surface expression in data set [1] stood at 0.544.

Regarding chain 1 Y32L N35F, the Kd with fluorescein was ≥ 10 µM. In addition, the yeast surface expression in data set [1] amounted to 0.363.

On to chain 1 T28P S30G, for which the equilibrium dissociation constant (Kd) in the data set with fluorescein turned out to be 0.000804 µM. Besides, the yeast surface expression in data set [1] was 1.25.

As to chain 1 T28M S30W, the Kd with fluorescein worked out at 0.00708 µM. In addition, the yeast surface expression in data set [1] amounted to 0.645.

With chain 1 F29D N35F W36G, the dissociation constant (Kd) with fluorescein was ≥ 10 µM. Besides, the yeast surface expression in data set [1] stood at 0.644.
